From publication PMC6056229, “Cryo-EM structure of the polycystin 2-l1 ion channel” (eLife, 2018)

Target: the molecule itself
Experiment: cryo-EM structure; single particle cryo-EM of purified full-length polycystin 2-l1 in amphipol PMAL-C8, HKN buffer (HEPES 50, KCl 150, NaCl 50, CaCl2 5 mM; pH 7.5), C4 symmetry imposed, 3.3 Å

B1: human polycystic kidney disease 2-like 1 (polycystin 2-l1) ion channel (natural protein, UniProt Q9P0L9 1-805, looked up)
chain: MNAVGSPEGQELQKLGSGAWDNPAYSGPPSPHGTLRVCTISSTGPLQPQPKKPEDEPQETAYRTQVSSCCLHICQGIRGLWGTTLTENTAENRELYIKTTLRELLVYIVFLVDICLLTYGMTSSSAYYYTKVMSELFLHTPSDTGVSFQAISSMADFWDFAQGPLLDSLYWTKWYNNQSLGHGSHSFIYYENMLLGVPRLRQLKVRNDSCVVHEDFREDILSCYDVYSPDKEEQLPFGPFNGTAWTYHSQDELGGFSHWGRLTSYSGGGYYLDLPGSRQGSAEALRALQEGLWLDRGTRVVFIDFSVYNANINLFCVLRLVVEFPATGGAIPSWQIRTVKLIRYVSNWDFFIVGCEVIFCVFIFYYVVEEILELHIHRLRYLSSIWNILDLVVILLSIVAVGFHIFRTLEVNRLMGKLLQQPNTYADFEFLAFWQTQYNNMNAVNLFFAWIKIFKYISFNKTMTQLSSTLARCAKDILGFAVMFFIVFFAYAQLGYLLFGTQVENFSTFIKCIFTQFRIILGDFDYNAIDNANRILGPAYFVTYVFFVFFVLLNMFLAIINDTYSEVKEELAGQKDELQLSDLLKQGYNKTLLRLRLRKERVSDVQKVLQGGEQEIQFEDFTNTLRELGHAEHEITELTATFTKFDRDGNRILDEKEQEKMRQDLEEERVALNTEIEKLGRSIVSSPQGKSGPEAARAGGWVSGEEFYMLTRRVLQLETVLEGVVSQIDAVGSKLKMLERKGWLAPSPGVKEQAIWKHPQPAPAVTPDPWGVQGGQESEVPYKREEEALEERRLSRGEIPTLQRS
modifications: glycan at N207; disulfide bond C210-C223
notes: polycystin 2-l1 (PKD2L1), human, full length; synthetic gene, not codon optimized; UniProt Q9P0L9; No cleavage of the MBP tag is described; fractions were found by western blot against MBP during the preparation for cryo-EM; The N terminus, the S4-S5 linker and the C terminus are not resolved in the map; also called PKD2L1; PC-2L1
stoichiometry N: 4
